Measurements reported in patent US7915395B2.

B1: CD3 sFv (VL-VH, no tag) (scFv)
scFv: VDIQMTQTTSSLSASLGDRVTISCRASQDIRNYLNWYQQKPDGTVKLLIYYTSRLHSGVPSRFSGSGSGTDYSLTIANLQPEDIATYFCQQGNTLPWTFGGGTKLVTKRELGGGGSGGGGSGGGGSIDEVQLQQSGPELVKPGASMTMSCKASGYSFTGYIVNWLKQSHGKNLEWIGLINPWKGLTTYNQKFKGKATLTVDKSSSTAYMELLSLTSEDSAVYYCARSGYYGDSDWYFDVWGAGTTCTVSSFESDQSNSEEAKKEEAKKEEAKKSNSLESL

Target: human CD3-ε (human) (UniProt P07766)
Sequence of UniProt P07766 (P07766 23-207): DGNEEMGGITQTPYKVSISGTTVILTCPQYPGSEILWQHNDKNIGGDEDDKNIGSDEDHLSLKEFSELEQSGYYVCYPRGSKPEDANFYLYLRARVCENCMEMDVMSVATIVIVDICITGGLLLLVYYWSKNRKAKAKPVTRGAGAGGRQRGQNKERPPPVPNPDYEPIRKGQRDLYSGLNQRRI

Molecule | Proliferation (day 3, cpm × 10^-3), Purified T Cells + (2 µg/ml 9.3) [cpm × 10^-3] | Proliferation (day 3, cpm × 10^-3), Purified T Cells + (0.5 ng/ml PMA) [cpm × 10^-3]
G19-4 Fab | 58.4 | 
native anti-CD3 Mab G19-4 (antibody) |  | 83.6
B1 |  | 65
